In patent EP1988168A1 (Max-Planck-Gesellschaft zur Förderung der Wissenschaften …, dated 2008):

B1: Syn7002-RbcL (enzyme, Synechococcus sp. PCC7002, UniProt Q44176 1-470, looked up)
chain: MQTKSAGFNAGVQDYRLTYYTPDYTPKDTDLLACFRMTPQPGVPPEECAAAVAAESSTGTWTTVWTDGLTDLDRYKGRCYNVEPVPGEDNQYFCFVAYPLDLFEEGSVTNVLTSLVGNVFGFKALRALRLEDIRFPVALIKTYQGPPHGITVERDLLNKYGRPLLGCTIKPKLGLSAKNYGRAVYECLRGGLDFTKDDENINSQPFMRWRDRFLFVQEAIEKSQAETNEVKGHYLNVTAGTCEEMLKRAEFAKEIGTPIIMHDFLTGGFTANTTLAKWCRDNGVLLHIHRAMHAVIDRQKNHGIHFRVLAKCLRLSGGDHLHSGTVVGKLEGDRAATLGFVDLMREDYVEEDRSRGVFFTQDYASLPGTMPVASGGIHVWHMPALVEIFGDDSCLQFGGGTLGHPWGNAPGATANRVALEACVQARNEGRSLAREGNDVLREAGKWSPELAAALDLWKEIKFEFDTVDTL
notes: Stood in the assays as monomers, dimers, assembly intermediates or RbcL8 core complex, depending on the experiment; also called wildtype RbcL; RbcL8
B3: AnaCA-RbcX (other, Anabaena sp. CA, UniProt Q44212 1-135, looked up)
chain: MNLKQIAKDTAKTLQSYLTYQALRTVLAQLGETNPPLALWLHNFSAGKVQDGEKYIEELFLEKPDLALRIMTVREHIAEEIAEFLPEMVVTGIQQANMEKRRQHLERMTQVSLSHPSPESEQQQFSDPDWDNLAS
notes: also called RbcX from Anabaena sp; CA
B5: Syn7002-RbcX (other, Synechococcus sp. PCC7002, UniProt Q44177 1-134, looked up)
chain: MEFKKVAKETAITLQSYLTYQAVRLISQQLSETNPGQAIWLGEFSKRHPIQESDLYLEAMMLENKELVLRILTVRENLAEGVLEFLPEMVLSQIKQSNGNHRRSLLERLTQVDSSSTDQTEPNPGESDTSEDSE
notes: Assembly chaperone; also called RbcX of Synechococcus sp; PCC7002; non-tagged Syn7002-RbcX
B6: Syn7002-RbcL peptide 2, KEIKFEFDTVD (peptide)
peptide: KEIKFEFDTVD

What was measured:
[1] = biological target: T1, GroEL (E. coli, UniProt P0A6F5 2-548); test: in vitro translation, Native-PAGE, autoradiography
T1 construct: also called E. coli GroEL; chaperonin

[2] = biological target: B5; test: isothermal titration calorimetry, peptide titrated into RbcX dimer at 22°C
[3] = biological target: B3; test: as above
[4] = biological target: B6; test: comparison of the ITC affinities for the C-terminal RbcL peptide
[5] = biological target: T2, Syn7002-RbcL(F462A, F464A) (Synechococcus sp. PCC7002, UniProt Q44176 1-470); test: coexpression in E. coli, Native-PAGE and immunoblot
T2 construct: also called RbcL(F462A/F464A) double mutant

[6] = biological target: Syn7002-RbcL(1-459) (Synechococcus sp. PCC7002, UniProt Q44176 1-459); test: as above
[7] = biological target: B1; test: co-immunoprecipitation with anti-FLAG antibody from E. coli extract
[8] = biological target: B1; test: displacement of RbcL from anti-FLAG beads carrying the Syn7002-RbcL/Syn7002-RbcXFLAG complex, 15 min at room temperature, immunoblot; competitor Syn7002-RbcXFLAG
[9] = biological target: T2, Syn7002-RbcL(F462A, F464A); test: pulse-chase in vitro translation, Bis-Tris Native-PAGE, autoradiography

T1 sequence (P0A6F5 2-548 limits assumed): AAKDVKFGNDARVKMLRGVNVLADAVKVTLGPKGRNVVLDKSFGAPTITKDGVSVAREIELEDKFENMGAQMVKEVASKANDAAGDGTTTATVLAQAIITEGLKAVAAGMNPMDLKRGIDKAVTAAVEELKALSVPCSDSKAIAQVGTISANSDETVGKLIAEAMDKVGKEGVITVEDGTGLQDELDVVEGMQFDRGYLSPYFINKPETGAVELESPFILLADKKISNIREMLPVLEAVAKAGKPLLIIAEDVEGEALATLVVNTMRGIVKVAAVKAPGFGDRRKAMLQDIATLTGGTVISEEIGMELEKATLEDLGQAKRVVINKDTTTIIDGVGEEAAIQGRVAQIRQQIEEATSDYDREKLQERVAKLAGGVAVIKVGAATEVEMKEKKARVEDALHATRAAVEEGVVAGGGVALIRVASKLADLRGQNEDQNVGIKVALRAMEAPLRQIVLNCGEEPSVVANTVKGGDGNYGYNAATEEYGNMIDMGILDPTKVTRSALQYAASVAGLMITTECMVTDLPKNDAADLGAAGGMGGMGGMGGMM

B1
binding result [1]: binds

B2: Syn7002-RbcL peptide 1, EIKFEFD (peptide)
peptide: EIKFEFD
notes: also called peptide EIKFEFD
Kd [2]: ~230 µM
Kd [3]: ~60 µM

B3
fold higher affinity (against Syn7002-RbcX) [4]: 30 fold
binding result [5]: no binding
binding result [6]: no binding

B4: Syn7002-RbcXFLAG (other, Synechococcus sp. PCC7002)
chain: MDYKDDDDKAGMEFKKVAKETAITLQSYLTYQAVRLISQQLSETNPGQAIWLGEFSKRHPIQESDLYLEAMMLENKELVLRILTVRENLAEGVLEFLPEMVLSQIKQSNGNHRRSLLERLTQVDSSSTDQTEPNPGESDTSEDSE
notes: Coexpressed with RbcL in E. coli and pulled down with anti-FLAG M2 beads; also called N-terminally FLAG-tagged wildtype RbcX; FLAG-tagged Syn7002-RbcX
binding result [7]: binds

B5
IC50 [8]: ~1 µM

B6
Kd [2]: ~160 µM
Kd [3]: ~5 µM

B7: AnaCA-RbcXFLAG (other, Anabaena sp. CA)
chain: MDYKDDDDKAGMNLKQIAKDTAKTLQSYLTYQALRTVLAQLGETNPPLALWLHNFSAGKVQDGEKYIEELFLEKPDLALRIMTVREHIAEEIAEFLPEMVVTGIQQANMEKRRQHLERMTQVSLSHPSPESEQQQFSDPDWDNLAS
notes: also called FLAG-tagged AnaCA-RbcX
binding result [9]: no binding (tested: 40 µM RbcX)
